From paper PMC3572051, “The Budding Yeast Cdc48^Shp1 Complex Promotes Cell Cycle Progression by Positive Regulation of Protein Phosphatase 1 (Glc7)” (PLoS ONE, 2013)

Target: T1, Shp1^3HA (S. cerevisiae, UniProt P34223 1-423)
T1 construct: Shp1 (Ubx1), S. cerevisiae; source: S. cerevisiae DF5, chromosomal fusion SHP1^3HA::klTRP1, endogenous expression level, in lysate
T1 sequence (looked up): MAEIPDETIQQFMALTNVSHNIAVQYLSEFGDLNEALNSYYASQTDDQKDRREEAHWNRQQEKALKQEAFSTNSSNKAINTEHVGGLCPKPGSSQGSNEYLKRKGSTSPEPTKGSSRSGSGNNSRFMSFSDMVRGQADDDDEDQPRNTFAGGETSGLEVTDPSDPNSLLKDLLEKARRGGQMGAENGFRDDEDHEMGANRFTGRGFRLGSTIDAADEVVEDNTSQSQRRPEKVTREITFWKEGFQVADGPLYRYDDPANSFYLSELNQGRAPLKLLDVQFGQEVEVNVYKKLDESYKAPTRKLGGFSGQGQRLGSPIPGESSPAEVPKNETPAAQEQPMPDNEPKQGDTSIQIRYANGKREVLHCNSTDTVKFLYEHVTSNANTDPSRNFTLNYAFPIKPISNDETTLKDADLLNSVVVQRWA
Test: co-IP; yeast lysates; immunoprecipitation with pre-coupled anti-HA antibody (overnight, 4°C), IP buffer 50 mM Tris/HCl pH 7.5, 100 mM KCl, 5 mM MgCl2, NP-40, 10% glycerol; Western blot; for Glc8^3HA lysates of asynchronous or α-factor-arrested wild-type and shp1-7 cells
Details: partners not purified

B1: Glc7^3myc (enzyme, S. cerevisiae, UniProt P32598 1-312, looked up)
chain: MDSQPVDVDNIIDRLLEVRGSKPGQQVDLEENEIRYLCSKARSIFIKQPILLELEAPIKICGDIHGQYYDLLRLFEYGGFPPESNYLFLGDYVDRGKQSLETICLLLAYKIKYPENFFILRGNHECASINRIYGFYDECKRRYNIKLWKTFTDCFNCLPIAAIIDEKIFCMHGGLSPDLNSMEQIRRVMRPTDIPDVGLLCDLLWSDPDKDIVGWSENDRGVSFTFGPDVVNRFLQKQDMELICRAHQVVEDGYEFFSKRQLVTLFSAPNYCGEFDNAGAMMSVDESLLCSFQILKPAQKSLPRQAGGRKKK
notes: Glc7, catalytic subunit of protein phosphatase 1, S. cerevisiae; carboxyl-terminally tagged at its authentic chromosomal locus; also called PP1 catalytic subunit; source: S. cerevisiae DF5, expressed from the chromosomal GLC7 locus as sole source of Glc7, in lysate; not shown: 3myc, C-terminal, kept
fold difference of the Glc7 signal in the IP lane (relative to the heavy chain signal) against the negative control: > 8 fold
